Data on 33 substances can be found in article PMC4700190.

A value given as a limit tells only on which side of the number the result lay.

In experiment [1] the target is CynD A58C (Bacillus pumilus). Kind of experiment: SEC; Superdex 200 10/300 GL, 0.1 M MOPS pH 7.7, 0.5 ml/min; His-tag purified protein; column calibrated with a marker kit, and with wild-type B. pumilus CynD (18-mer) and P. stutzeri CynD (14-mer).
Experiment [2] concerns the target CynD C225A (Bacillus pumilus). Described as above.
Experiment [3] deals with CynD D232C (Bacillus pumilus). The description is as above.
The target in experiment [4] is CynD E64C (Bacillus pumilus). Described as above.
The target of experiment [5] is CynD E72C (Bacillus pumilus). The description is as above.
Experiment [6] deals with CynD E222C (Bacillus pumilus). Described as above.
The target in experiment [7] is CynD E229C (Bacillus pumilus). The description is as above.
For experiment [8], the target named is CynD E235C (Bacillus pumilus). Described as above.
In experiment [9] the target is CynD F57C (Bacillus pumilus). The experiment is described as above.
Experiment [10] concerns the target CynD F59C (Bacillus pumilus). Described as above.
Experiment [11] has as its target CynD F69C (Bacillus pumilus). Described as above.
The target in experiment [12] is CynD F234C (Bacillus pumilus). Described as above.
Experiment [13] addresses CynD G61C (Bacillus pumilus). Described as above.
In experiment [14] the target is CynD H62C (Bacillus pumilus). The description is as above.
Experiment [15] deals with CynD H71C (Bacillus pumilus). The experiment is described as above.
Experiment [16] has as its target CynD I60C (Bacillus pumilus). The description is as above.
Experiment [17] has as its target CynD I224C (Bacillus pumilus). The experiment is described as above.
Experiment [18] deals with CynD K68C (Bacillus pumilus). The description is as above.
Experiment [19] deals with CynD L226C (Bacillus pumilus). Described as above.
The target in experiment [20] is CynD M223C (Bacillus pumilus). The description is as above.
Experiment [21] has as its target CynD P55C (Bacillus pumilus). Described as above.
The target of experiment [22] is CynD P63C (Bacillus pumilus). The experiment is described as above.
Experiment [23] deals with CynD Q230C (Bacillus pumilus). Described as above.
Experiment [24] addresses CynD R67C (Bacillus pumilus).
For experiment [25], the target named is CynD R231C (Bacillus pumilus). Description: SEC; Superdex 200 10/300 GL, 0.1 M MOPS pH 7.7, 0.5 ml/min; His-tag purified protein; column calibrated with a marker kit, and with wild-type B. pumilus CynD (18-mer) and P. stutzeri CynD (14-mer).
The target in experiment [26] is CynD T66C (Bacillus pumilus). The description is as above.
The target of experiment [27] is CynD T227C (Bacillus pumilus). The experiment is described as above.
For experiment [28], the target named is CynD W56C (Bacillus pumilus). Described as above.
Experiment [29] concerns the target CynD Y65C (Bacillus pumilus). Described as above.
Experiment [30] deals with CynD Y70C (Bacillus pumilus). The experiment is described as above.
Experiment [31] concerns the target CynD Y233C (Bacillus pumilus). Described as above.
The target of experiment [32] is CynD from Pseudomonas stutzeri (Pseudomonas stutzeri). Described as above.
Experiment [33] has as its target cyanide dihydratase from Bacillus pumilus (CynD), wild type (Bacillus pumilus). Described as above.

In experiment [1], CynD A58C (enzyme) displayed a stoichiometry N of 18 subunits. With CynD C225A (enzyme), the stoichiometry N in experiment [2] turned out to be 18 subunits. Take CynD D232C (enzyme): the stoichiometry N in experiment [3] was determined as 18 subunits. CynD E64C (enzyme) came in with a stoichiometry N in experiment [4] of 16 subunits. In experiment [5], CynD E72C (enzyme) registered a stoichiometry N of 18 subunits. Substance CynD E222C (enzyme) yielded a stoichiometry N in experiment [6] of 18 subunits. In turn, CynD E229C (enzyme) gave a stoichiometry N in experiment [7] of 18 subunits. With CynD E235C (enzyme), in [8], the stoichiometry N worked out at 18 subunits. Turning to CynD F57C (enzyme), the stoichiometry N in experiment [9] was found to be 14 subunits. Substance CynD F59C (enzyme) registered a stoichiometry N in experiment [10] of 18 subunits. As to CynD F69C (enzyme), the stoichiometry N in [11] was determined as 16 subunits.

Turning to CynD F234C (enzyme), in experiment [12], the stoichiometry N was 16 subunits.

CynD G61C (enzyme): the stoichiometry N in experiment [13] is 14 subunits. For CynD H62C (enzyme), in [14], the stoichiometry N was 18 subunits. In turn, CynD H71C (enzyme) had a stoichiometry N in experiment [15] of 16 subunits. In [16], CynD I60C (enzyme) gave a stoichiometry N of 18 subunits.

Consider CynD I224C (enzyme), for which the stoichiometry N in experiment [17] worked out at 18 subunits.

As for CynD K68C (enzyme), the stoichiometry N in [18] came to 18 subunits. In the case of CynD L226C (enzyme), in [19], the stoichiometry N is 18 subunits. In [20], CynD M223C (enzyme) yielded a stoichiometry N of 18 subunits. The substance CynD P55C (enzyme) came in with a stoichiometry N in experiment [21] of 18 subunits. On to CynD P63C (enzyme), for which the stoichiometry N in experiment [22] amounted to 18 subunits.

Regarding CynD Q230C (enzyme), in experiment [23], the stoichiometry N worked out at 18 subunits. For CynD R67C (enzyme), the activity of the purified protein relative to wild type, picric acid cyanide assay in experiment [24] is less than 10%.

Turning to CynD R231C (enzyme), the stoichiometry N in experiment [25] was 18 subunits. In turn, CynD T66C (enzyme) registered a stoichiometry N in experiment [26] of 16 subunits. In the case of CynD T227C (enzyme), the stoichiometry N in [27] was found to be 18 subunits. Take CynD W56C (enzyme): in experiment [28], the stoichiometry N stood at 16 subunits. CynD Y65C (enzyme) yielded a stoichiometry N in experiment [29] of 18 subunits. In turn, CynD Y70C (enzyme) returned a stoichiometry N in [30] of 16 subunits.

Turning to CynD Y233C (enzyme), in [31], the stoichiometry N is 16 subunits.

In turn, CynD from Pseudomonas stutzeri (enzyme) yielded a stoichiometry N in experiment [32] of 14 subunits. With “cyanide dihydratase from Bacillus pumilus (CynD), wild type (enzyme)”, the stoichiometry N in experiment [33] was 18 subunits.
